Results published in patent publication US20030082746.

T1: pro-transglutaminase derived from S. mobaraense IFO13819 (transglutaminase having the pro-structure part)
T1 sequence: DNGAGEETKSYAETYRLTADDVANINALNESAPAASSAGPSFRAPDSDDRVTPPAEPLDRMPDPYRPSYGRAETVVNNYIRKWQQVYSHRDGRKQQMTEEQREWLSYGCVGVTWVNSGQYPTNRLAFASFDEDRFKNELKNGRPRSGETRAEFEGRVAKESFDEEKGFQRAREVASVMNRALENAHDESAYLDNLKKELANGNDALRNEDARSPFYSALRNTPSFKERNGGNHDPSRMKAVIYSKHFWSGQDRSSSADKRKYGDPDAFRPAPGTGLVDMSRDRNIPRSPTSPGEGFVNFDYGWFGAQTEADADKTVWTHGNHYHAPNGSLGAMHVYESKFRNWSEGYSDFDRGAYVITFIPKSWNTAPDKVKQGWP

T2: AAA-pNA
T2 chain: AAA

T3: AAF-pNA
T3 chain: AAF

T4: AAP-pNA
T4 chain: AAP

T5: AAPL-pNA
T5 chain: AAPL

T6: AFP-pNA
T6 chain: AFP

T7: AP-pNA
T7 chain: AP

T8: Bz-FVR-pNA
T8 chain: FVR

T9: DP-pNA
T9 chain: DP

T10: FRAP-pNA
T10 chain: FRAX

T11: GP-βNA
T11 chain: GP

T12: PSFRAP-pNA
T12 chain: PSFRAP

T13: RP-pNA
T13 chain: RP

T14: SFRAP-pNA
T14 chain: SFRAP

T15: Suc-AAPF-pNA
T15 chain: AAPF

T16: Z-AGP-βNA
T16 chain: AGP

T17: Z-GAP-βNA
T17 chain: GAP

T18: Z-GP-βNA
T18 chain: GP

T19: pro-transglutaminase derived from S. mobaraense IFO13819 (transglutaminase having the pro-structure part)
T19 chain: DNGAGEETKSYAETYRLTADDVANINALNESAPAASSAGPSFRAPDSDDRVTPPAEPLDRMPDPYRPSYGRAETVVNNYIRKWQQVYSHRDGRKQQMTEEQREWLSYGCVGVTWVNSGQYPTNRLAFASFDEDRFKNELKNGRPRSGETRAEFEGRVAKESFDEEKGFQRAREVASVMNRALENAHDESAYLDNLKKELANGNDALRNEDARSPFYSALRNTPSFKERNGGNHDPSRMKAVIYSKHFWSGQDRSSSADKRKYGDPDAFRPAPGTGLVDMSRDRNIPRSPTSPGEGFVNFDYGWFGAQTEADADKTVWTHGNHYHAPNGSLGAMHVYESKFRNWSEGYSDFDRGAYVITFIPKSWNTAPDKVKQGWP


Experiments:
[1] = test system: T1, pro-transglutaminase derived from S. mobaraense IFO13819 (transglutaminase having the pro-structure part)
AAA-pNA = biological target: T2, AAA-pNA
AAF-pNA = biological target: T3, AAF-pNA
AAP-pNA = biological target: T4, AAP-pNA
AAPL-pNA = biological target: T5, AAPL-pNA
AFP-pNA = biological target: T6, AFP-pNA
AP-pNA = biological target: T7, AP-pNA
Bz-FVR-pNA = biological target: T8, Bz-FVR-pNA
DP-pNA = biological target: T9, DP-pNA
FRAP-pNA = biological target: T10, FRAP-pNA
GP-βNA = biological target: T11, GP-βNA
PSFRAP-pNA = biological target: T12, PSFRAP-pNA
RP-pNA = biological target: T13, RP-pNA
SFRAP-pNA = biological target: T14, SFRAP-pNA
Suc-AAPF-pNA = biological target: T15, Suc-AAPF-pNA
Z-AGP-βNA = biological target: T16, Z-AGP-βNA
Z-GAP-βNA = biological target: T17, Z-GAP-βNA
Z-GP-βNA = biological target: T18, Z-GP-βNA
[2] = biological target: T19, pro-transglutaminase derived from S. …

| Molecule | cleavage of the pro-transglutaminases by Dispase digestion (SDS-PAGE) [1] | relative activity (%) (AAA-pNA) | relative activity (%) (AAF-pNA) | relative activity (%) (AAP-pNA) | relative activity (%) (AAPL-pNA) | relative activity (%) (AFP-pNA) | relative activity (%) (AP-pNA) | relative activity (%) (Bz-FVR-pNA) | relative activity (%) (DP-pNA) | relative activity (%) (FRAP-pNA) | relative activity (%) (GP-βNA) | relative activity (%) (PSFRAP-pNA) | relative activity (%) (RP-pNA) | relative activity (%) (SFRAP-pNA) | relative activity (%) (Suc-AAPF-pNA) | relative activity (%) (Z-AGP-βNA) | relative activity (%) (Z-GAP-βNA) | relative activity (%) (Z-GP-βNA) | N-terminal amino acid sequence of the cleaved transglutaminase (SAMP45 and svPEP co-secreted) [2] |
| --- | --- | --- | --- | --- | --- | --- | --- | --- | --- | --- | --- | --- | --- | --- | --- | --- | --- | --- | --- |
| Dispase (Boeringer Manheim Co. Ltd.) | the cleavage of the pro-transglutaminases was confirmed by SDS-PAGE | – | – | – | – | – | – | – | – | – | – | – | – | – | – | – | – | – | – |
| proline specific peptidase (svPEP) produced by S. mobaraense IFO13819 (protein) QADIKDRILKIPGMKFVEEKPYQGYRYLVMTYRQPVDHRNPGKGTFEQRFTLLHKDTDRPTVFFTSGYNVSTNPSRSEPTRIVDGNQVSMEYRFFTPSRPQPADWSKLDIWQAASDQHRLYQALKPVYGKNWLATGGSKGGMTATYFRRFYPNDMNGTVAYVAPNDVNDKEDSAYDKFFQNVGDKACRTQLNSVQREALVRRDEIVARYEKWAKENGKTFKVVGSADKAYENVVLDLVWSFWQYHLQSDCASVPATKASTDELYKFIDDISGFDGYTDQGLERFTPYYYQAGTQLGAPTVKNPHLKGVLRYPGINQPRSYVPRDIPMTFRPGAMADVDRWVREDSRNMLFVYGQNDPWSGEPFRLGKGAAARHDYRFYAPGGNHGSNIAQLVADERAKATAEVLKWAGVAPQAVQKDEKAAKPLAPFDAKLDRVKNDKQSALRP | – | 8.5% | 4.1% | 100% | 0.3% | 26.3% | 0.53% | 0.002% | 0% | 49% | 0.4% | 0.2% | 0.94% | 1.23% | 0.01% | 0.78% | 1.2% | 0.04% | it had the same sequence as the naturally occurring transglutaminase derived from S. mobaraense having Asp as the N-terminal amino acid |
